What was measured:
[1] = tested on: Mmi1 YTH-ΔN (Schizosaccharomyces pombe); assay: SwitchSENSE; conditions: 40 mM NaCl; RNA-DNA chimera: 15-mer DSRshort followed by 42 deoxyribonucleotides; FP: 10 mM TAPS pH 8.2, 2 mM PIPES, 50 or 150 mM NaCl, 0.5 mM MgAc, 0.1 mM TCEP, 0.01% Brij-35, room temperature, 0.1 nM RNA; EMSA: 20 mM HEPES pH 7.5, 100 mM …
[2] = tested on: Mmi1 YTH-ΔNΔC (Schizosaccharomyces pombe); assay: SwitchSENSE; conditions: 40 mM NaCl; RNA-DNA chimera: 15-mer DSRshort followed by 42 deoxyribonucleotides; FP: 10 mM TAPS pH 8.2, 2 mM PIPES, 50 or 150 mM NaCl, 0.5 mM MgAc, 0.1 mM TCEP, 0.01% Brij-35, room temperature, 0.1 nM RNA; EMSA: 20 mM HEPES pH 7.5, 100 mM …
Mmi1 YTH [3] = target: T1, Mmi1 YTH (Schizosaccharomyces pombe, UniProt O74958 327-488); assay: SwitchSENSE; conditions: 40 mM NaCl; RNA-DNA chimera: 15-mer DSRshort followed by 42 deoxyribonucleotides; FP: 10 mM TAPS pH 8.2, 2 mM PIPES, 50 or 150 mM NaCl, 0.5 mM MgAc, 0.1 mM TCEP, 0.01% Brij-35, room temperature, 0.1 nM RNA; EMSA: 20 mM HEPES pH 7.5, 100 mM …
T1 sequence: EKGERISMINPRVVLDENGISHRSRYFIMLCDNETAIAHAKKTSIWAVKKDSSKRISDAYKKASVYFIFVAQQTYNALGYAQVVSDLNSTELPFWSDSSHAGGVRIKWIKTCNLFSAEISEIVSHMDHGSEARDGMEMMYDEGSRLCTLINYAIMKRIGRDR

[4] = tested on: Mmi1 YTH-ΔC (Schizosaccharomyces pombe); assay: SwitchSENSE; conditions: 40 mM NaCl; RNA-DNA chimera: 15-mer DSRshort followed by 42 deoxyribonucleotides; FP: 10 mM TAPS pH 8.2, 2 mM PIPES, 50 or 150 mM NaCl, 0.5 mM MgAc, 0.1 mM TCEP, 0.01% Brij-35, room temperature, 0.1 nM RNA; EMSA: 20 mM HEPES pH 7.5, 100 mM …
Mmi1 USR-YTH [5] = target: T2, Mmi1 USR-YTH (Schizosaccharomyces pombe, UniProt O74958 282-488); assay: SwitchSENSE; conditions: 40 mM NaCl; RNA-DNA chimera: 15-mer DSRshort followed by 42 deoxyribonucleotides; FP: 10 mM TAPS pH 8.2, 2 mM PIPES, 50 or 150 mM NaCl, 0.5 mM MgAc, 0.1 mM TCEP, 0.01% Brij-35, room temperature, 0.1 nM RNA; EMSA: 20 mM HEPES pH 7.5, 100 mM …
T2 sequence: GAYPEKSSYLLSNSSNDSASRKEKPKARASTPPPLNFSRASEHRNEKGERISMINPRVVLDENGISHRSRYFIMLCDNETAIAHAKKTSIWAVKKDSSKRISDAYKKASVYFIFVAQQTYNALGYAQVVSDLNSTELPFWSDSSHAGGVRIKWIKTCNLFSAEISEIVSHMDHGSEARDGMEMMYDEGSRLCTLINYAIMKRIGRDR

Mmi1 YTH [6] = target: T1, Mmi1 YTH; assay: fluorescence polarization; 150 mM NaCl; FP: 10 mM TAPS pH 8.2, 2 mM PIPES, 50 or 150 mM NaCl, 0.5 mM MgAc, 0.1 mM TCEP, 0.01% Brij-35, room temperature, 0.1 nM RNA; EMSA: 20 mM HEPES pH 7.5, 100 mM NaCl (plus 30 mM from protein buffer), 1 mM MgAc, 0.1 mM TCEP, 5% glycerol, 50 nM RNA, 15 min; SwitchSENSE: 40 mM NaCl; conditions: protein: recombinant; tags: N-terminal His6, 3C-cleaved; label: 3'-6-carboxyfluorescein
Mmi1 USR-YTH [7] = target: T2, Mmi1 USR-YTH; assay: as above; conditions: protein: recombinant; tags: N-terminal His6, 3C-cleaved; label: 3'-6-carboxyfluorescein
Mmi1 YTH [8] = target: T1, Mmi1 YTH; assay: fluorescence polarization; 50 mM NaCl; FP: 10 mM TAPS pH 8.2, 2 mM PIPES, 50 or 150 mM NaCl, 0.5 mM MgAc, 0.1 mM TCEP, 0.01% Brij-35, room temperature, 0.1 nM RNA; EMSA: 20 mM HEPES pH 7.5, 100 mM NaCl (plus 30 mM from protein buffer), 1 mM MgAc, 0.1 mM TCEP, 5% glycerol, 50 nM RNA, 15 min; SwitchSENSE: 40 mM NaCl; conditions: protein: recombinant; tags: N-terminal His6, 3C-cleaved; label: 3'-6-carboxyfluorescein
Mmi1 USR-YTH [9] = target: T2, Mmi1 USR-YTH; assay: as above; conditions: protein: recombinant; tags: N-terminal His6, 3C-cleaved; label: 3'-6-carboxyfluorescein
Mmi1(301-488) = target: T3, Mmi1(301-488) (Schizosaccharomyces pombe, UniProt O74958 301-488); assay: X-ray crystallography; FP: 10 mM TAPS pH 8.2, 2 mM PIPES, 50 or 150 mM NaCl, 0.5 mM MgAc, 0.1 mM TCEP, 0.01% Brij-35, room temperature, 0.1 nM RNA; EMSA: 20 mM HEPES pH 7.5, 100 mM NaCl (plus 30 mM from protein buffer), 1 mM MgAc, 0.1 mM TCEP, 5% glycerol, 50 nM RNA, 15 min; SwitchSENSE: 40 mM NaCl; conditions: protein: recombinant; tags: N-terminal His6, 3C-cleaved
T3 sequence: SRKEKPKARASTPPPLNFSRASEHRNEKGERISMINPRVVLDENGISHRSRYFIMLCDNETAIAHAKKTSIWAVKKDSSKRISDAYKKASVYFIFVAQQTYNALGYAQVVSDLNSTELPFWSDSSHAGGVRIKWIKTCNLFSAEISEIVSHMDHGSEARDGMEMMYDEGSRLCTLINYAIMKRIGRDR

Mmi1 USR-YTH [10] = target: T2, Mmi1 USR-YTH; assay: EMSA; FP: 10 mM TAPS pH 8.2, 2 mM PIPES, 50 or 150 mM NaCl, 0.5 mM MgAc, 0.1 mM TCEP, 0.01% Brij-35, room temperature, 0.1 nM RNA; EMSA: 20 mM HEPES pH 7.5, 100 mM NaCl (plus 30 mM from protein buffer), 1 mM MgAc, 0.1 mM TCEP, 5% glycerol, 50 nM RNA, 15 min; SwitchSENSE: 40 mM NaCl; conditions: protein: recombinant; tags: N-terminal His6, 3C-cleaved; label: 3'-fluorescein
Mmi1 USR-YTH [11] = target: T2, Mmi1 USR-YTH; assay: NMR; FP: 10 mM TAPS pH 8.2, 2 mM PIPES, 50 or 150 mM NaCl, 0.5 mM MgAc, 0.1 mM TCEP, 0.01% Brij-35, room temperature, 0.1 nM RNA; EMSA: 20 mM HEPES pH 7.5, 100 mM NaCl (plus 30 mM from protein buffer), 1 mM MgAc, 0.1 mM TCEP, 5% glycerol, 50 nM RNA, 15 min; SwitchSENSE: 40 mM NaCl; conditions: protein: recombinant; tags: N-terminal His6, 3C-cleaved

DSRshort-DNA chimera for SwitchSENSE showed a Kd [1] of 15000 nM, a Kd [2] of 51000 nM and a Kd (Mmi1 YTH [3]) of 16 nM. For the same molecule, the Kd [4] was 160 nM and the Kd (Mmi1 USR-YTH [5]) was 0.09 nM.

UCUUAAACCAGUCAC (ssRNA) [DSRshort (15-mer)] was tested, and the Kd (Mmi1 YTH [6]) was 154 ± 85 nM, the Kd (Mmi1 USR-YTH [7]) was 6.1 ± 0.7 nM and the Kd (Mmi1 YTH [8]) was 42 ± 18 nM. The Kd (Mmi1 USR-YTH [9]) was 0.14 ± 0.01 nM.

CUUUAAACCUA (ssRNA) [11-mer DSR RNA]: binds (Mmi1(301-488)).

GUGUCUCUUUAAACCUAAAAAGCAC (ssRNA) [rec8DSR]: binds (Mmi1 USR-YTH [10]).

UUAAACC (ssRNA) [7-mer DSR RNA]: binds (Mmi1(301-488)); binds (Mmi1 USR-YTH [11]).
